For orientation: Kd means the free concentration of one partner at which half of the binding sites on the other are occupied at equilibrium, for simple one-to-one binding.

The target in the experiment is calmodulin (CaM) (UniProt P0DP23 1-149). Nature of the experiment: ITC.

B1: human NaV1.2 CTD (1777-1937) H1853R (domain or fragment)
chain: ENFSVATEESAEPLSEDDFEMFYEVWEKFDPDATQFIEFAKLSDFADALDPPLLIAKPNKVQLIAMDLPMVSGDRIRCLDILFAFTKRVLGESGEMDALRIQMEERFMASNPSKVSYEPITTTLKRKQEEVSAIIIQRAYRRYLLKQKVKKVSSIYKKDKG
B1 showed a Kd of 172 nM.

B2: human NaV1.2 CTD (1777-1937) R1918H (domain or fragment)
chain: ENFSVATEESAEPLSEDDFEMFYEVWEKFDPDATQFIEFAKLSDFADALDPPLLIAKPNKVQLIAMDLPMVSGDRIHCLDILFAFTKRVLGESGEMDALRIQMEERFMASNPSKVSYEPITTTLKRKQEEVSAIIIQRAYRHYLLKQKVKKVSSIYKKDKG
As to B2, binding was put at a Kd of 112 nM.

B3: human NaV1.6 C-terminal domain (CTD), amino acids 1769-1926, wild type (domain or fragment)
chain: FSVATEESADPLSEDDFETFYEIWEKFDPDATQFIEYCKLADFADALEHPLRVPKPNTIELIAMDLPMVSGDRIHCLDILFAFTKRVLGDSGELDILRQQMEERFVASNPSKVSYEPITTTLRRKQEEVSAVVLQRAYRGHLARRGFICKKTTSNKLE
Molecule B3 had a Kd of 276 nM.

The values above are taken from paper PMC5299624 (The Journal of General Physiology, 2017).
